Biological target: FZD1/2/4/5/7/8
Assay: cell-based or functional assay

B1: CT0001 (bispecific antibody)
heavy 1: EVQLVESGGGLVQPGGSLRLSCAASGFNIHSSSIHWVRQAPGKGLEWVAATYSSFGSITYADSVKGRFTISADTSKNTAYLQMNSLRAEDTAVYYCARYHHPFGYALDYWGQGTLVTVSSASTKGPSVFPLAPSSKSTSGGTAALGCLVKDYFPEPVTVSWNSGALTSGVHTFPAVLQSSGLYSLSSVVTVPSSSLGTQTYICNVNHKPSNTKVDKKVEPKSCDKTHTCPPCPAPELLGGPSVFLFPPKPKDTLMISRTPEVTCVVVDVSHEDPEVKFNWYVDGVEVHNAKTKPREEQYNSTYRVVSVLTVLHQDWLNGKEYKCKVSNKALPAPIEKTISKAKGQPREPQVYTLPPIRELMTSNQVSLSCAVKGFYPSDIAVEWESNGQPENNYKTTPPVLDSDGSFFLVSKLTVDKSRWQQGNVFSCSVMHEALHNHYTQKSLSLSPGKSGSETPGTSESATPESGGGEVQLVESGGGLVQPGGSLRLSCAASGFNISSYYIHWVRQAPGKGLEWVASIYSSYGYTSYADSVKGRFTISADTSKNTAYLQMNSLRAEDTAVYYCARTVRGSKKPYFSGWAMDYWGQGTLVTVSSGGGGSDIQMTQSPSSLSASVGDRVTITCRASQSVSSAVAWYQQKPGKAPKLLIYSASSLYSGVPSRFSGSRSGTDFTLTISSLQPEDFATYYCQQYSWGPFTFGQGTKVEIK
heavy 2: EVQLVESGGGLVQPGGSLRLSCAASGFNIHSSSIHWVRQAPGKGLEWVAATYSSFGSITYADSVKGRFTISADTSKNTAYLQMNSLRAEDTAVYYCARYHHPFGYALDYWGQGTLVTVSSASTKGPSVFPLAPSSKSTSGGTAALGCLVKDYFPEPVTVSWNSGALTSGVHTFPAVLQSSGLYSLSSVVTVPSSSLGTQTYICNVNHKPSNTKVDKKVEPKSCDKTHTCPPCPAPELLGGPSVFLFPPKPKDTLMISRTPEVTCVVVDVSHEDPEVKFNWYVDGVEVHNAKTKPREEQYNSTYRVVSVLTVLHQDWLNGKEYKCKVSNKALPAPIEKTISKAKGQPREPMVFDLPPSREEMTKNQVSLWCMVKGFYPSDIAVEWESNGQPENNYKTTPPVLDSDGSFFLYSKLTVDKSRWQQGNVFSCSVMHEALHNHYTQKSLSLSPGKSGSETPGTSESATPESGGGEVQLVESGGGLVQPGGSLRLSCAASGFNISYSSIHWVRQAPGKGLEWVAYISSYYGYTYYADSVKGRFTISADTSKNTAYLQMNSLRAEDTAVYYCARAHYFPWAGAMDYWGQGTLVTVSSGGGGSDIQMTQSPSSLSASVGDRVTITCRASQSVSSAVAWYQQKPGKAPKLLIYSASSLYSGVPSRFSGSRSGTDFTLTISSLQPEDFATYYCQQYYWPITFGQGTKVEIK
light: DIQMTQSPSSLSASVGDRVTITCRASQSVSSAVAWYQQKPGKAPKLLIYSASSLYSGVPSRFSGSRSGTDFTLTISSLQPEDFATYYCQQGVYLFTFGQGTKVEIKRTVAAPSVFIFPPSDEQLKSGTASVVCLLNNFYPREAKVQWKVDNALQSGNSQESVTEQDSKDSTYSLSSTLTLSKADYEKHKVYACEVTHQGLSSPVTKSFNRGEC
- % Wnt Maxima Avg: 57%
- EC50 (nM), TOPFLASH assay: 0.3 nM
- Maximal Signal (% Wnt3a maxima) (% Wnt3a maxima): 57
- Topflash EC50 (nM) Avg: 0.3 nM

Reference: patent US20250270332A1
